This note sets out measurements from paper doi:10.1101/2022.11.21.517443 (bioRxiv, 2022).

“And” between values parts separate entries of the source, which are not always exact repeats. Equal values may be shown once.

The series deals with the molecule itself. Kind of series: single-particle cryo-EM 2D classification.

B1: Escherichia coli glutamine synthetase (enzyme, UniProt P0A9C5 1-469, looked up)
chain: MSAEHVLTMLNEHEVKFVDLRFTDTKGKEQHVTIPAHQVNAEFFEEGKMFDGSSIGGWKGINESDMVLMPDASTAVIDPFFADSTLIIRCDILEPGTLQGYDRDPRSIAKRAEDYLRSTGIADTVLFGPEPEFFLFDDIRFGSSISGSHVAIDDIEGAWNSSTQYEGGNKGHRPAVKGGYFPVPPVDSAQDIRSEMCLVMEQMGLVVEAHHHEVATAGQNEVATRFNTMTKKADEIQIYKYVVHNVAHRFGKTATFMPKPMFGDNGSGMHCHMSLSKNGVNLFAGDKYAGLSEQALYYIGGVIKHAKAINALANPTTNSYKRLVPGYEAPVMLAYSARNRSASIRIPVVSSPKARRIEVRFPDPAANPYLCFAALLMAGLDGIKNKIHPGEAMDKNLYDLPPEEAKEIPQVAGSLEEALNELDLDREFLKAGGVFTDEAIDAYIALRREEDDRVRMTPHPVEFELYYSV
Usually stoichiometry N stands for the number of molecules, sites or subunits per partner or assembly. In the case of B1, the “stoichiometry N” value was 10 subunits and 8 subunits.
